For assay [1], the target named is Abeta1-42. Put plainly: intracellular flow cytometry of THP-1 cells, isotype control stain (background level). Background: A flow cytometer gives signals particle by particle.
For assay [2], the target named is Abeta1-42. Put plainly: intracellular flow cytometry of monocytes/macrophages from patient and control, isotype control stain (background level).

The values that follow come from patent publication US20140051084A1.

Sequence of Abeta1-42 (peptide, as listed by the source): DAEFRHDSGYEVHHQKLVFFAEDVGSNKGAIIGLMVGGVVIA

As for “isotype control antibodies (Mouse IgG1 and IgG2b) (antibody)”, the median Abeta FITC-A signal with Abeta1-42 [1] and in the assay with Abeta1-42 [2] was 102 throughout.
